How the values were obtained:
[1] = biological target: 牛血清白蛋白(BSA) (bovine) (UniProt P02769); test: indirect ELISA, BSA coated at 1 ug/ml, purified antibody at dilution 128K, HRP goat anti-mouse IgG
[2] = biological target: 牛血清白蛋白(BSA) (bovine) (UniProt P02769); test: ELISA, BSA coated at 1 ug/ml, biotin-labelled antibody at dilution 32K, HRP-avidin
[3] = biological target: 牛血清白蛋白(BSA) (bovine) (UniProt P02769); test: ELISA, BSA coated at 1 ug/ml, biotin-labelled antibody at dilution 64K, HRP-avidin
[4] = biological target: 牛血清白蛋白(BSA) (bovine) (UniProt P02769); test: indirect ELISA, BSA coated at 1 ug/ml, purified antibody at dilution 4K, HRP goat anti-mouse IgG
[5] = biological target: 牛血清白蛋白(BSA) (bovine) (UniProt P02769); test: indirect ELISA, BSA coated at 1 ug/ml, purified antibody at dilution 32K, HRP goat anti-mouse IgG
[6] = biological target: 牛血清白蛋白(BSA) (bovine) (UniProt P02769); test: ELISA, BSA coated at 1 ug/ml, biotin-labelled antibody at dilution 4K, HRP-avidin
[7] = biological target: 牛血清白蛋白(BSA) (bovine) (UniProt P02769); test: indirect ELISA, BSA coated at 1 ug/ml, purified antibody at dilution 1K, HRP goat anti-mouse IgG
[8] = biological target: 牛血清白蛋白(BSA) (bovine) (UniProt P02769); test: indirect ELISA, BSA coated at 1 ug/ml, purified antibody at dilution 8K, HRP goat anti-mouse IgG
[9] = biological target: 牛血清白蛋白(BSA) (bovine) (UniProt P02769); test: indirect ELISA, BSA coated at 1 ug/ml, purified antibody at dilution 512K, HRP goat anti-mouse IgG
[10] = biological target: 牛血清白蛋白(BSA) (bovine) (UniProt P02769); test: ELISA, BSA coated at 1 ug/ml, biotin-labelled antibody at dilution 1024K, HRP-avidin
[11] = biological target: 牛血清白蛋白(BSA) (bovine) (UniProt P02769); test: indirect ELISA, BSA coated at 1 ug/ml, purified antibody at dilution 64K, HRP goat anti-mouse IgG
[12] = biological target: 牛血清白蛋白(BSA) (bovine) (UniProt P02769); test: ELISA, BSA coated at 1 ug/ml, biotin-labelled antibody at dilution 2K, HRP-avidin
[13] = biological target: 牛血清白蛋白(BSA) (bovine) (UniProt P02769); test: indirect ELISA, BSA coated at 1 ug/ml, purified antibody at dilution 16K, HRP goat anti-mouse IgG
[14] = biological target: 牛血清白蛋白(BSA) (bovine) (UniProt P02769); test: ELISA, BSA coated at 1 ug/ml, biotin-labelled antibody at dilution 16K, HRP-avidin
[15] = biological target: 牛血清白蛋白(BSA) (bovine) (UniProt P02769); test: ELISA, BSA coated at 1 ug/ml, biotin-labelled antibody at dilution 256K, HRP-avidin
[16] = biological target: 牛血清白蛋白(BSA) (bovine) (UniProt P02769); test: ELISA, BSA coated at 1 ug/ml, biotin-labelled antibody at dilution 128K, HRP-avidin
[17] = biological target: 牛血清白蛋白(BSA) (bovine) (UniProt P02769); test: ELISA, BSA coated at 1 ug/ml, biotin-labelled antibody at dilution 512K, HRP-avidin
[18] = biological target: 牛血清白蛋白(BSA) (bovine) (UniProt P02769); test: ELISA, BSA coated at 1 ug/ml, biotin-labelled antibody at dilution 8K, HRP-avidin
[19] = biological target: 牛血清白蛋白(BSA) (bovine) (UniProt P02769); test: ELISA, BSA coated at 1 ug/ml, biotin-labelled antibody at dilution 1K, HRP-avidin
[20] = biological target: 牛血清白蛋白(BSA) (bovine) (UniProt P02769); test: indirect ELISA, BSA coated at 1 ug/ml, purified antibody at dilution 1024K, HRP goat anti-mouse IgG
[21] = biological target: 牛血清白蛋白(BSA) (bovine) (UniProt P02769); test: indirect ELISA, BSA coated at 1 ug/ml, purified antibody at dilution 256K, HRP goat anti-mouse IgG
[22] = biological target: 牛血清白蛋白(BSA) (bovine) (UniProt P02769); test: indirect ELISA, BSA coated at 1 ug/ml, purified antibody at dilution 2K, HRP goat anti-mouse IgG

Chain of UniProt P02769 (P02769 25-607): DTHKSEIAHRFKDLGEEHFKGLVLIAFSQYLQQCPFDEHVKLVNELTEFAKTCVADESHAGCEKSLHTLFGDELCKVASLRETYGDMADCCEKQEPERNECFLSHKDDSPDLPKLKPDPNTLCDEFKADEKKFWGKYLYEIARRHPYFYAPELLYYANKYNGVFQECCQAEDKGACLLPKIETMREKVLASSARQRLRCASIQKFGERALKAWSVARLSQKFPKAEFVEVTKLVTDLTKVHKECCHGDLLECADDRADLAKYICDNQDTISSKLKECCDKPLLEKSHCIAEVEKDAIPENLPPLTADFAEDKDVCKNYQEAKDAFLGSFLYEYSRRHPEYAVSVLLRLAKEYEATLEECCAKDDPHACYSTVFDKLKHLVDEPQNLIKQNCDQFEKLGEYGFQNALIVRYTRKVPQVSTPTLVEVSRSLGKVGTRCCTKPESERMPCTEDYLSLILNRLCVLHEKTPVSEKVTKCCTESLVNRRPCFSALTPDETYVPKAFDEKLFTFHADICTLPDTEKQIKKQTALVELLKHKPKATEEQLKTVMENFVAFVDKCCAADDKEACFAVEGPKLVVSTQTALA

B1: BSA抗体B6 (antibody, V domains shown)
VH: VQLQESGAELVKPGASVKLSCKASGYTFTGQYVSWVKQRPGQGLEWIGEDNKSSRQGTEYSKATLTVDKSSSTAYMQLSSLTSEDSAVYYCTRDEVRSETYWGQGTTVTVSS
VL: DIVLTQSPATLSVTPGDSVSLSCRTEDKSLSYHWFQQKSHESPRLLIKDAYQKISGIPSRFNGCGSGTDFTLNINSVETEDFGMFFCQTSGWTHFGSGTKLEIKR
- OD450 [1]: 0.371
- OD450 [2]: 1.13
- OD450 [3]: 0.885
- OD450 [4]: 0.981
- OD450 [5]: 0.538
- OD450 [6]: 1.9
- OD450 [7]: 2.21
- OD450 [8]: 0.846
- OD450 [9]: 0.184
- OD450 [10]: 0.15
- OD450 [11]: 0.454
- OD450 [12]: 2.11
- OD450 [13]: 0.648
- OD450 [14]: 1.42
- OD450 [15]: 0.431
- OD450 [16]: 0.677
- OD450 [17]: 0.332
- OD450 [18]: 1.66
- OD450 [19]: 2.39
- OD450 [20]: 0.161
- OD450 [21]: 0.269
- OD450 [22]: 1.64

— patent CN114591430A
